Experimental data taken from patent US20200308299A1, “ANTI-GPC-1 ANTIBODY” (National University Corporation Kochi University, priority 2017, published 2020).

B1: clone 01a033 (antibody)
heavy: QVQLKQSGPELVKPGASVKISCKASGYSFTGYYMHWVKQSPEKSLEWIGEINPSTGDTTYNQKFKAKATLTVDKSSSTAYMQLKSLTSEDSAVYYCAREKRDDGVFAYWGQGTLVTVSSAKTTAPSVYPLAPVCGDTTGSSVTLGCLVKGYFPEPVTLTWNSGSLSSGVHTFPAVLQSDLYTLSSSVTVTSSTWPSQSITCNVAHPASSTKVDKKIEPRGPTIKPCPPCKCPAPNLLGGPSVFIFPPKIKDVLMISLSPIVTCVVVDVSEDDPDVQISWFVNNVEVHTAQTQTHREDYNSTLRVVSALPIQHQDWMSGKEFKCKVNNKDLPAPIERTISKPKGSVRAPQVYVLPPPEEEMTKKQVTLTCMVTDFMPEDIYVEWTNNGKTELNYKNTEPVLDSDGSYFMYSKLRVEKKNWVERNSYSCSVVHEGLHNHHTTKSFSRTPGK
light: DIVMSQSPKSMSMSVGERVALSCKASENVGTYVSWYQQKPEQSPKLLIYGASNRYTGVPDRFTGSGSATDFTLTISSVQAEDLADYYCGQSYSYPLTFGAGTKLELKRADAAPTVSIFPPSSEQLTSGGASVVCFLNNFYPKDINVKWKIDGSERQNGVLNSWTDQDSKDSTYSMSSTLTLTKDEYERHNSYTCEATHKTSTSPIVKSFNRNEC
B2: GPC1 ADC (conjugate)
heavy: B1 heavy
light: B1 light

Columns and labels:
LLC-mGPC1-16 = experiment: In vivo efficacy test on GPC1 ADC, mouse syngenic model using mGPC1 expressing LLC cell strain
Source text: A mouse model (syngenic mouse) with GPC1 expressed in normal cells that is consistent with GPC1 expressed from cancer cells (i.e., both mouse GPC1) can be prepared by grafting the cell strain expressing mouse GPC1 established in Example 16 into mice. The efficacy and safety can be more accurately evaluated in an experiment using such a mouse model.
FIG. 55 schematically depicts the test in this Example. Specifically, 5.0×10^6 cells of LLC-mGPC1-16 were subcutaneously grafted into female C57BL/6 mice. […] The tumor volume and body weight were measured on day 0, day 4, day 8, day 12, day 16, day 20, and day 24.

DU145 cells = experiment: ADC assay combining anti-GPC-1 antibody and MMAF binding secondary antibody in DU145 cells; format: cell-based
[1] = biological target: T1, Recombinant human Glypican-1 protein (Homo sapiens, UniProt P35052); experiment: Antigen affinity analysis by ELISA on immobilized recombinant human GPC1; format: binding; conditions: for affinity to antigen (ELISA, OD 450 nm): recombinant human GPC1 coated at 2.5 μg/mL
T1 construct: purchased R&D systems 4519-GP-050
T1 sequence (P35052 24-530 limits assumed): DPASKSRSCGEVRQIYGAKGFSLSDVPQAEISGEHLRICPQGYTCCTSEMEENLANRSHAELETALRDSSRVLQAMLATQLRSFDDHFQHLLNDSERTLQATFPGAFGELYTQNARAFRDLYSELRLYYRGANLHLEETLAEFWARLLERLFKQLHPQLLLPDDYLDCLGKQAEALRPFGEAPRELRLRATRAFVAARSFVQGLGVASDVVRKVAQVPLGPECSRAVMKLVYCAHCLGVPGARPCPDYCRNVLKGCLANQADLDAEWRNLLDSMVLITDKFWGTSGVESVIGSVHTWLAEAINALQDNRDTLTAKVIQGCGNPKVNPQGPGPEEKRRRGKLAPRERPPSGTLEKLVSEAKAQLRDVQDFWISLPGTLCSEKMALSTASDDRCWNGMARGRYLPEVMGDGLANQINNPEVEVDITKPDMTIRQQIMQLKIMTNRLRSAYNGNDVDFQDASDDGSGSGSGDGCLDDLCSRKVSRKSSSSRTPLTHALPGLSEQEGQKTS
Procedure: The buffer used in this Example was prepared as follows.
The primary antibodies used in this Example were prepared. GPC1-CL-MMAF and anti-GPC1 monoclonal antibodies (01a033) were diluted stepwise to 100, 20, 4, 0.8, 0.16, 0.032, 0.0064, 0.00128, 0.000256, 0.0000512, and 0.00001024 nM with a dilution buffer. Recombinant human Glypican-1 proteins (CF, model number: 4519-GP-050, volume: 50 μg) were used as the antigen.
Recombinant human GPC1 was diluted to 2.5 μg/mL with PBS (−) and added to 64 wells of Immuno 96 well MicroWell Solid Plate (Maxisorp, Nunc) at 50 μL/well, and the plate was sealed. The plate was shaken, and liquid was confirmed to spread throughout the plate. Next, the following procedure was followed.
*Dilute (1) GPC1-CL-MMAF and (2) anti-GPC1 monoclonal antibody (01a033) with a dilution buffer in a 10-fold dilution series from 100 nM, and add the mixture to the 96-well microplate at 100 μL/well.
*Dilute Anti-Mouse IgG (H+L) Antibody, Human Serum Adsorbed and Peroxidase labeled (KPL, cat. No.: 474-1806) with a dilution buffer (10% Block Ace) to 0.2 μg/ml (prepare a 5000-fold dilution upon use), and add the mixture to the 96-well microplate at 100 μL/well.
*Return TMB (SurModics, TMBW-1000-01) to normal temperature before use, and add the TMB to the 96-well microplate at 100 μL/well.
*Measure absorbance at 450 nm.
*Analyze data with GraphPad Prism 6.04.

BxPC3 cells = experiment: In vitro ADC assay, BxPC3 cells; format: cell-based, human; conditions: BxPC3, 144 hours
Procedure: Preparation of a conjugate of mouse anti-Glypican-1 mAb (01a033), mouse IgG2a (biolegend #400224) as a control, and mc-vc-PAB-MMAF was commissioned to MORADEC. An anticancer agent was conjugated to a cysteine residue via a cleavable linker. The DAR (drug-antibody ratio) was as follows. GPC1-CL-MMAF DAR=3.8, mouse IgG2a-CL-MMAF DAR=4.1.
(1) The cells were seeded on Thermo Fisher Scientific's 96-well white plate (model no.: 136101) (90 μl cell suspension). RPMI1640+10% FBS+100 U/ml penicillin+100 μg/ml streptomycin was used as the medium. The cells were seeded in 60 wells, and 100 μL of medium was added to 36 wells, and cultured in a 5% CO2 incubator at 37° C. (2) The next day, 10 μL of ADC was added to the cells (total amount: 100 μL). (3) After 144 hours of culture, a CellTiter-Glo™ Luminescence Cell Viability Assay reagent (Promega) was added and mixed at 100 μL/well. (4) Measurements were taken with a plate reader. (5) Analysis was conducted with GraphPad Prism 6.
The IC50 values were calculated from the following equation (Hossain M M, Hosono-Fukao T, Tang R, Sugaya N, van Kuppevelt T H, Jenniskens G J, Kimata K, Rosen S D, Uchimura K (2010) Direct detection of HSulf-1 and HSulf-2 activities on extracellular heparan sulphate and their inhibition by PI-88. Glycobiology 20(2): 175-186.)
IC50=10^(Log [A][B]×(50−C)/(D−C)+Log [B]) […]

| Molecule | antitumor effect against tumor expressing mouse GPC-1 (LLC-mGPC1-16; 1, 3, 10 mg/kg) | activity compared to MIL-38 (DU145 cells; DU145 cells) [fold] | growth suppressing effect against DU145 cells (DU145 cells; primary antibody plus MMAF secondary antibody 2 μg/ml, 3 days) | EC50 values against DU145 cells (DU145 cells; primary antibody plus MMAF secondary antibody, 3 days) | affinity to antigen (ELISA, OD 450 nm) [1] | effect of suppressing cell growth (BxPC3 cells) | tumor growth (LLC-mGPC1-16; 1 mg/kg iv day 0, 4, 8, 12, compared to the control group) | tumor growth (LLC-mGPC1-16; 3 mg/kg iv day 0, 4, 8, 12) | tumor growth (LLC-mGPC1-16; 10 mg/kg iv day 0, 4, 8, 12) | body weight (LLC-mGPC1-16; 10 mg/kg, tended to recover after 15 days from the start of administration) | toxicity (LLC-mGPC1-16; syngenic mice, 1, 3, 10 mg/kg) | affinity level of ADC compared with unlabeled antibody ([1]; 01a033 versus 01a033 ADC) |
| --- | --- | --- | --- | --- | --- | --- | --- | --- | --- | --- | --- | --- |
| B1 | high antitumor effect | 37 | high growth suppressing effect | excellent EC50 values | high affinity |  |  |  |  |  |  |  |
| B2 |  |  |  |  | high affinity | exhibits an effect of suppressing cell growth | significantly delayed | Tumor hardly grew | Tumor hardly grew | transient decrease in body weight | Significant toxicity was not observed | about the same |
